Reference: publication doi:10.1101/636563

Tests used:
[1] = target: KRas G12D (GDP-loaded) (UniProt P01116); assay: ITC
[2] = target: KRas G12D (GDP-loaded) (UniProt P01116); assay: thermal shift assay
[3] = target: KRas wild-type (UniProt P01116); assay: ITC
[4] = target: KRas G12D, site-specifically mono-biotinylated by sortase-mediated ligation (GDP-loaded) (UniProt P01116); assay: SPR

## KRpep-2d (peptide)
[1]
  Kd: 0.021 µM
  stoichiometry N: 0.625
[2]
  ΔTm: 11.5 °C

## Raf-RBD (from UniProt P04049 56-131) (domain or fragment)
[3]
  Kd: 0.006 µM
  stoichiometry N: 0.554

## SAH-SOS1A (from UniProt Q07889 929-944) (peptide)
[4]
  Kd: > 1 µM

## cyclorasin 9A5 (peptide)
[4]
  Kd: > 1 µM
